Results on 44 variants are retold here after the Human Domainome abundance scans (Beltran et al. 2025).

B1: CD2-associated protein, residues 109 to 169; numbered along this chain, Q9Y5K6 (parent)
chain: KKRQCKVLFEYIPQNEDELELKVGDIIDINEEVEEGWWSGTLNNKLGLFPSNFVKELEVTD

± gives the uncertainty stated by the source.

The data set covers variants of B1. The data set is described as follows: abundance fitness (aPCA) (normalised: wild type 0, dead -1); higher = more abundant; growth selection in yeast, the domain comes from the species named. As to conditions: Homo sapiens.
Consider KKRQCKVLFEYIPQNEDELELKVGDIIDINEEVEEGWWSGTLNNKLGLFPMNFVKELEVTD [S51M], for which the abundance fitness is -0.138 ± 0.11. The value for KKRQCKVLFEYIPQNEDELELKVGDIIDINEEVEEGWWSGTLNNKLGLFPFNFVKELEVTD [S51F] was -0.431 ± 0.26; that for KKRQCKVLFEYIPQNEDELELKVGDIIDINEEVEEGWWSGTLNNKLGLFPCNFVKELEVTD [S51C] was -0.311 ± 0.16. For KKRQCKVLFEYIPQNEDELELKVGDIIDINEEVEEGWWSGTLNNKLGLFPLNFVKELEVTD [S51L], the abundance fitness is -0.366 ± 0.088. As for KKRQCKVLFEYIPQNEDELELKVGDIIDINEEVEEGWWSGTLNNKLGLFPTNFVKELEVTD [S51T], the figure is -0.047 ± 0.11. As for KKRQCKVLFEYIPQNEDELELKVGDIIDINEEVEEGWWSGTLNNKLGLFPINFVKELEVTD [S51I], the figure is -0.178 ± 0.27. On to KKRQCKVLFEYIPQNEDELELKVGDIIDINEEVEEGWWSGTLNNKLGLFPANFVKELEVTD [S51A], for which the abundance fitness is 0.09 ± 0.07. As for KKRQCKVLFEYIPQNEDELELKVGDIIDINEEVEEGWWSGTLNNKLGLFPQNFVKELEVTD [S51Q], the figure is -0.307 ± 0.15. With KKRQCKVLFEYIPQNEDELELKVGDIIDINEEVEEGWWSGTLNNKLGLFPKNFVKELEVTD [S51K], the abundance fitness is -0.12 ± 0.13. The value for KKRQCKVLFEYIPQNEDELELKVGDIIDINEEVEEGWWSGTLNNKLGLFPPNFVKELEVTD [S51P] was -0.429 ± 0.12; that for KKRQCKVLFEYIPQNEDELELKVGDIIDINEEVEEGWWSGTLNNKLGLFPGNFVKELEVTD [S51G] was -0.35 ± 0.086; that for KKRQCKVLFEYIPQNEDELELKVGDIIDINEEVEEGWWSGTLNNKLGLFPRNFVKELEVTD [S51R] was -0.361 ± 0.091. On to KKRQCKVLFEYIPQNEDELELKVGDIIDINEEVEEGWWSGTLNNKLGLFPWNFVKELEVTD [S51W], for which the abundance fitness was -0.093 ± 0.11. As for KKRQCKVLFEYIPQNEDELELKVGDIIDINEEVEEGWWSGTLNNKLGLFPENFVKELEVTD [S51E], the figure is -0.762 ± 0.33. As for KKRQCKVLFEYIPQNEDELELKVGDIIDINEEVEEGWWSGTLNNKLGLFTSNFVKELEVTD [P50T], the figure is -0.367 ± 0.16.

KKRQCKVLFEYIPQNEDELELKVGDIIDINEEVEEGWWSGTLNNKLGLFLSNFVKELEVTD [P50L]: the abundance fitness was -0.665 ± 0.17. Consider KKRQCKVLFEYIPQNEDELELKVGDIIDINEEVEEGWWSGTLNNKLGLFASNFVKELEVTD [P50A], for which the abundance fitness was -0.941 ± 0.31. As for KKRQCKVLFEYIPQNEDELELKVGDIIDINEEVEEGWWSGTLNNKLGLFWSNFVKELEVTD [P50W], the abundance fitness was -0.764 ± 0.14. As for KKRQCKVLFEYIPQNEDELELKVGDIIDINEEVEEGWWSGTLNNKLGLFHSNFVKELEVTD [P50H], the figure is 0.078 ± 0.17; as for KKRQCKVLFEYIPQNEDELELKVGDIIDINEEVEEGWWSGTLNNKLGLFGSNFVKELEVTD [P50G], -0.697 ± 0.17. For KKRQCKVLFEYIPQNEDELELKVGDIIDINEEVEEGWWSGTLNNKLGLFKSNFVKELEVTD [P50K], the abundance fitness is -0.226 ± 0.12. KKRQCKVLFEYIPQNEDELELKVGDIIDINEEVEEGWWSGTLNNKLGLFRSNFVKELEVTD [P50R]: the abundance fitness is -0.064 ± 0.075.

Take KKRQCKVLFEYIPQNEDELELKVGDIIDINEEVEEGWWSGTLNNKLGLFMSNFVKELEVTD [P50M]: the abundance fitness is -0.57 ± 0.21. As for KKRQCKVLFEYIPQNEDELELKVGDIIDINEEVEEGWWSGTLNNKLGLFQSNFVKELEVTD [P50Q], the figure is -0.279 ± 0.17. As for KKRQCKVLFEYIPQNEDELELKVGDIIDINEEVEEGWWSGTLNNKLGLFVSNFVKELEVTD [P50V], the figure is -1.03 ± 0.41; as for KKRQCKVLFEYIPQNEDELELKVGDIIDINEEVEEGWWSGTLNNKLGLFSSNFVKELEVTD [P50S], -0.465 ± 0.13; as for KKRQCKVLFEYIPQNEDELELKVGDIIDINEEVEEGWWSGTLNNKLGLFNSNFVKELEVTD [P50N], -0.045 ± 0.16. In the case of KKRQCKVLFEYIPQNEDELELKVGDIIDINEEVEEGWWSGTLNNKLGLFPSNQVKELEVTD [F53Q], the abundance fitness is -0.2 ± 0.13. As for KKRQCKVLFEYIPQNEDELELKVGDIIDINEEVEEGWWSGTLNNKLGLFPSNWVKELEVTD [F53W], the figure is -0.56 ± 0.31; as for KKRQCKVLFEYIPQNEDELELKVGDIIDINEEVEEGWWSGTLNNKLGLFPSNAVKELEVTD [F53A], 0.015 ± 0.13; as for KKRQCKVLFEYIPQNEDELELKVGDIIDINEEVEEGWWSGTLNNKLGLFPSNHVKELEVTD [F53H], 0.054 ± 0.22. The value for KKRQCKVLFEYIPQNEDELELKVGDIIDINEEVEEGWWSGTLNNKLGLFPSNEVKELEVTD [F53E] was -0.894 ± 0.45. Take KKRQCKVLFEYIPQNEDELELKVGDIIDINEEVEEGWWSGTLNNKLGLFPSNKVKELEVTD [F53K]: the abundance fitness is -0.031 ± 0.15. The value for KKRQCKVLFEYIPQNEDELELKVGDIIDINEEVEEGWWSGTLNNKLGLFPSNYVKELEVTD [F53Y] was 0.019 ± 0.22; that for KKRQCKVLFEYIPQNEDELELKVGDIIDINEEVEEGWWSGTLNNKLGLFPSNTVKELEVTD [F53T] was -0.255 ± 0.19; that for KKRQCKVLFEYIPQNEDELELKVGDIIDINEEVEEGWWSGTLNNKLGLFPSNPVKELEVTD [F53P] was -0.525 ± 0.2. The value for KKRQCKVLFEYIPQNEDELELKVGDIIDINEEVEEGWWSGTLNNKLGLFPSNIVKELEVTD [F53I] was 0.149 ± 0.11; that for KKRQCKVLFEYIPQNEDELELKVGDIIDINEEVEEGWWSGTLNNKLGLFPSNLVKELEVTD [F53L] was -0.157 ± 0.093.

As for KKRQCKVLFEYIPQNEDELELKVGDIIDINEEVEEGWWSGTLNNKLGLFPSNNVKELEVTD [F53N], the abundance fitness was -0.109 ± 0.12. As for KKRQCKVLFEYIPQNEDELELKVGDIIDINEEVEEGWWSGTLNNKLGLFPSNRVKELEVTD [F53R], the figure is 0.007 ± 0.079; as for KKRQCKVLFEYIPQNEDELELKVGDIIDINEEVEEGWWSGTLNNKLGLFPSNSVKELEVTD [F53S], 0.037 ± 0.096. The value for KKRQCKVLFEYIPQNEDELELKVGDIIDINEEVEEGWWSGTLNNKLGLFPSNCVKELEVTD [F53C] was 0.067 ± 0.12.

Take KKRQCKVLFEYIPQNEDELELKVGDIIDINEEVEEGWWSGTLNNKLGLFPSNGVKELEVTD [F53G]: the abundance fitness is -0.48 ± 0.17. As for KKRQCKVLFEYIPQNEDELELKVGDIIDINEEVEEGWWSGTLNNKLGLFPSNMVKELEVTD [F53M], the abundance fitness was 0.057 ± 0.13.
